Measured values as given in patent US20050059584A1, “Novel chemokine mimetics synthesis and their use” (priority 2002, published 2005).
Positions of bridges follow the written chain, without caps; N, C: chain ends.

Biological target: T1, CXCR4 receptor (Homo sapiens, UniProt P61073)
T1 construct: incubation of THP-1 cells with SDF-1; endogenous in cells; host or cells: THP-1 cells
Assay: [Ca2+]i mobilization in fura-2,AM loaded THP-1 cells (FIG. 5, Table 6)
Assay type: cell-based
Details: 1×10^6/ml
Protocol: Fura-2,AM loaded THP-1 cells (1×10^6/ml) were stimulated with SDF-1, Compound A or Compound K at the concentrations indicated. The values represent the mean ± one S.D. of n=3 experiments.
Fura-2,AM loaded THP-1 cells (1×10^6/ml) were stimulated with native SDF-1 and the SDF-1 peptide analogs at the concentration of native SDF-1 concentration that gave the maximum [Ca^2+]1 stimulation (1 μM). The values represent the mean ± one S.D. of n=3 experiments.
This example illustrates the efficacy of SDF-1 and SDF-1 peptide analogs in mediating intracellular calcium mobilization ([Ca^2+]i). To illustrate that the binding of SDF-1 and SDF-1 peptide analogs results in the agonistic induction of the CXCR4 receptor, [Ca^2+]i mobilization assays were conducted, the results of which are shown in FIG. 5. To obtain the data shown in FIG. 5, fura-2,AM loaded THP-1 cells (1×10^6/ml) were stimulated with Compound A/SDF-1, SDF-1(1-14)-(G)4-SDF-1(55-67) Lys20/Glu24-cyclic amide (SEQ ID NO:809) or Compound K/SDF-1(1-14)-(G)4-SDF-1(55-67)-Glu24/Lys28-cyclic amide (SEQ ID NO:803) at the concentrations indicated (the values represent the mean ± one S.D. of n=3 experiments). […]

T1 sequence (P61073 whole entry): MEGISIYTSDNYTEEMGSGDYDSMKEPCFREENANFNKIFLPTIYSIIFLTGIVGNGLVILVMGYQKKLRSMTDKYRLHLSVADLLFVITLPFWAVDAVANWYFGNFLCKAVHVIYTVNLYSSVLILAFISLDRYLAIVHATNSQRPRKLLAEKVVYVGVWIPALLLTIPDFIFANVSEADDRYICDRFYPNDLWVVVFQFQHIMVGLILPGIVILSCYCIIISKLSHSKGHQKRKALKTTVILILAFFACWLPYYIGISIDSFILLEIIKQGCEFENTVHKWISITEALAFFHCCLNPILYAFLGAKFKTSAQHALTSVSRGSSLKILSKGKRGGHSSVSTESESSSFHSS

H2N-Lys-Pro-Val-Ser-Leu-Ser-Tyr-Arg-Cys-Pro-Cys-Arg-Phe-Phe-[Gly-Gly-Gly-Gly]-Leu-Lys-Trp-Ile-Gln-Glu-Tyr-Leu-Glu-Lys-Ala-Leu-Asn-NH2 (H-KPVSLSYRCPCRFFGGGGLKWIQEYLEKALN-NH2; lactam 20-24; cysteine pairing not given here) [Compound A]
EC50: 148 nM
